{"source": "patent US20050048590A1", "biological_target": "Fibronectin from human plasma (human) (UniProt P02751)", "sequence (P02751 32-2477)": "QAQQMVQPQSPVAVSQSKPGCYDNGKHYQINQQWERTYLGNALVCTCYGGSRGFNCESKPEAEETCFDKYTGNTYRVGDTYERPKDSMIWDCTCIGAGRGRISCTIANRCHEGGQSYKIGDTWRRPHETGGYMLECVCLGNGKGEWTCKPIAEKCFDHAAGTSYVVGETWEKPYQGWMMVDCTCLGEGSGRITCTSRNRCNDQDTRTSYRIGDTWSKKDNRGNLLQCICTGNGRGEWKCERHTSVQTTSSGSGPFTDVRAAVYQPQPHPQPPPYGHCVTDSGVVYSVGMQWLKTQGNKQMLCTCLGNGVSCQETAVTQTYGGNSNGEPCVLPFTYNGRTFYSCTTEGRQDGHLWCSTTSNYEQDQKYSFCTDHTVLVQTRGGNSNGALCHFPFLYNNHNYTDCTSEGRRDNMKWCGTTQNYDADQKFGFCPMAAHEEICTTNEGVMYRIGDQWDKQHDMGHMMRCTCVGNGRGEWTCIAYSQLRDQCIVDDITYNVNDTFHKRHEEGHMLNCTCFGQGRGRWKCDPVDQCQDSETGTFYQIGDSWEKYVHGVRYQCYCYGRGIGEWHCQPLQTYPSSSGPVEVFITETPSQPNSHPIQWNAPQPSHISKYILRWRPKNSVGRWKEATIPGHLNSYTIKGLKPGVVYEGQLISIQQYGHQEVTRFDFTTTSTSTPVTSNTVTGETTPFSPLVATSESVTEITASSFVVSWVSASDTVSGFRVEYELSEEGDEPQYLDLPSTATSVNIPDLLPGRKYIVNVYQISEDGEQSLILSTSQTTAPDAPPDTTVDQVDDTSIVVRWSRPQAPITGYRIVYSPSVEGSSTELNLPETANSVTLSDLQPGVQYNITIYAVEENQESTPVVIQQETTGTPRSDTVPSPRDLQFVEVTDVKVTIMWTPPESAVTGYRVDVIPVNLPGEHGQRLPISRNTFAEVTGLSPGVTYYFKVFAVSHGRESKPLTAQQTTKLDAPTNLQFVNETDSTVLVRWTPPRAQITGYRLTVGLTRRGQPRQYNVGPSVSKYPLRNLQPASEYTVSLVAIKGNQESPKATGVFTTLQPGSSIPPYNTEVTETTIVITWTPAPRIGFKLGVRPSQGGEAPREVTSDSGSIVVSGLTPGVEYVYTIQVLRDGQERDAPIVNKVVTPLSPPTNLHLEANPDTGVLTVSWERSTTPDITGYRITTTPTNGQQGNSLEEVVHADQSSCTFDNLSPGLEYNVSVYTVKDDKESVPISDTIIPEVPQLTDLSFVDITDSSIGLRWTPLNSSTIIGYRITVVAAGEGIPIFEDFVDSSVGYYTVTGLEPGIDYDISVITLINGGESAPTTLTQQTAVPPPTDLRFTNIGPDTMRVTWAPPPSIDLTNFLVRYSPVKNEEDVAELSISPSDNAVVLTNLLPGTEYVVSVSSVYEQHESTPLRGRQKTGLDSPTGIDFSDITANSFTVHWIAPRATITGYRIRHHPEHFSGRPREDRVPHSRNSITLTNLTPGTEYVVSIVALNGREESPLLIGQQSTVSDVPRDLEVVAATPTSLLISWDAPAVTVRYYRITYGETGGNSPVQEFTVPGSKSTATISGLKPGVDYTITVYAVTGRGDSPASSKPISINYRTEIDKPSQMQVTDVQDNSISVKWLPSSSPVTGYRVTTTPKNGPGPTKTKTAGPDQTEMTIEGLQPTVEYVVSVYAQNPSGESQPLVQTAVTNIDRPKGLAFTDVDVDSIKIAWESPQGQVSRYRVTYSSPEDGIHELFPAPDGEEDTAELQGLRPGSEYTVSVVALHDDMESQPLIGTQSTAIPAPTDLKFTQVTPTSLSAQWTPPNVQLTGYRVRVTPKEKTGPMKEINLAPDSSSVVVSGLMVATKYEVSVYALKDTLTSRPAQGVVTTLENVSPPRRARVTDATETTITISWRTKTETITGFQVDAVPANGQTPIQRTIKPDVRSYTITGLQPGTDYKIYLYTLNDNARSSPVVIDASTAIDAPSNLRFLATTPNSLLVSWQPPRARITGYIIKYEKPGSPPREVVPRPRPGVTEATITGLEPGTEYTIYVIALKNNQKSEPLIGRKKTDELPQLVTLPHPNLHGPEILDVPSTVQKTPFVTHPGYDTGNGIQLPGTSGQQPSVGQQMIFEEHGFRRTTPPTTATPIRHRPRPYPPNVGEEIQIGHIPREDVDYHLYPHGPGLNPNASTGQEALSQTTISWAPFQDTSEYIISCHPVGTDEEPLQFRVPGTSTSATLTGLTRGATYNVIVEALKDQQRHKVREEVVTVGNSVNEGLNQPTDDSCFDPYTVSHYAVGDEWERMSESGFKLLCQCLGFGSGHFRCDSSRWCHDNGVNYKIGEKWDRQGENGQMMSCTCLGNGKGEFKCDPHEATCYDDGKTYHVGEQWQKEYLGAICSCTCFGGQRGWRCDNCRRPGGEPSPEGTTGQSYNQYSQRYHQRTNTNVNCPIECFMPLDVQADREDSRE", "assay": "cell-based or functional assay", "data": [{"substance": "yeast enolase (Sigma) (from UniProt P00924 2-437)", "values": [{"measurement": "inhibition of pneumococcal adherence to fibronectin coated wells", "result": 98, "unit": "%"}]}]}
